Measurements taken from publication PMC3630167 (2013).
Residue numbers refer to the chain shown, from its start. No end group written: not given here.

T1: synthetic (γ-D-Glu)5 (not fully specified (residues 1, 2, 3, 4, 5))
T1 peptide: EEEEE

B1: mAb F26G3 IgG1 subclass switch variant (antibody, V domains shown)
VH: EVQLVESGGGLVQPKGSLKLSCAASGFTFNTYAMNWVRQAPGKGLEWVARIRSKSNNYATYYADSVKDRFTISRDDSQSMLYLQMNNLKTEDTAMYYCVRGYYGWDYWGQGTSVTVSS
VL: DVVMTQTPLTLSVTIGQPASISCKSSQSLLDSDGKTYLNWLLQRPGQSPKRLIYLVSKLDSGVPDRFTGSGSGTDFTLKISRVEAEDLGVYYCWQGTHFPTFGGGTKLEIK
B2: mAb F26G3 IgG2b subclass switch variant (antibody, V domains shown)
VH: B1 VH
VL: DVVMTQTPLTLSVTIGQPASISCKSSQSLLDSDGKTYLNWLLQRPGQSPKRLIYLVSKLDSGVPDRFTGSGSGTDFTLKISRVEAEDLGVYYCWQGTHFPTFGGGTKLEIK
B3: mAb F24F2 IgG2b subclass switch variant (antibody, V domains shown)
VH: B1 VH with Y102L, Y103R, G104Y, W105L, S113T, V114L
VL: not shown
B4: mAb F24F2 IgG1 subclass switch variant (antibody, V domains shown)
VH: B1 VH with Y102L, Y103R, G104Y, W105L, S113T, V114L
VL: not shown
B5: mAb F24F2 IgG2a subclass switch variant (antibody, V domains shown)
VH: B1 VH with Y102L, Y103R, G104Y, W105L, S113T, V114L
VL: not shown
B6: mAb F26G3 IgG2a subclass switch variant (antibody, V domains shown)
VH: B1 VH
VL: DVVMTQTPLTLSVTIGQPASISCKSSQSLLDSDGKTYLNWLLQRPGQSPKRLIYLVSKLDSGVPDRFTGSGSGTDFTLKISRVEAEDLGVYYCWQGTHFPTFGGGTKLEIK

Target: T1, synthetic (γ-D-Glu)5

Binder	Kd [µM]
B1	13
B2	6.7
B3	9
B4	18
B5	18
B6	45
